The text below walks through data of patent publication US20240218066A1, “USE OF ANTI-PD-1 ANTIBODY IN COMBINATION WITH FIRST-LINE CHEMOTHERAPY IN TREATMENT OF ADVANCED NON-SMALL CELL LUNG CANCER” (SHANGHAI JUNSHI BIOSCIENCES CO., LTD., priority 2021, published 2024).

The test system of series [1] is patients with untreated advanced NSCLC.
Experimental: (§1) This is a randomized, double-blind, placebo-controlled, multicenter, phase III clinical study for assessing the efficacy and safety of toripalimab (JS001) or placebo in combination with first-line chemotherapy in patients with untreated advanced NSCLC and exploring the population with optimal biomarker prediction.
(§2) Toripalimab 240 mg/placebo was administered by intravenous infusion once every three weeks (Q3W) in cycles of 21 days, with treatment continued until the patients met the discontinuation criteria, i.e., recorded progressive disease, unacceptable AEs, investigator-assessed unsuitability for continued treatment, withdrawal of informed consent, 2 years of JS001 treatment, or other reasons as specified in the protocol.
(§3) The selection of cisplatin or carboplatin was at the discretion of the investigator.
(§4) Safety analysis set (SS): including all patients who received at least one dose of the study drug (JS001/placebo/chemotherapeutic agent).
(§5) Safety analysis was performed in SS and crossover treatment analysis sets, where safety data from the double-blind stage of the primary study and the crossover treatment stage were analyzed separately. Safety analyses include drug exposure, compliance, adverse events, laboratory examinations, vital signs, physical examinations, electrocardiogramaminations, ECOG scores, etc.
(§6) All safety analyses were based on the SS population (464 patients), including 308 patients in the test group and 156 patients in the control group. […] The primary safety analysis results based on the SS population in the double-blind stage of the primary study are as follows:
For series [2] the test system is unchanged. Description: Phase III clinical study, safety analysis (SS population). To be noted: SS population, test group.
Experimental: as §1, §2, §3, §4, §5, §6

Regarding “JS001: humanized IgG4 anti-PD-1 mAb with light and heavy chain amino acid sequences SEQ ID NOs: 9 and 10”, the “SAE judged by the investigator to be related to JS001: infectious pneumonia” value in series [1] turned out to be 1.6%. Besides, in series [2], the “SAE judged by the investigator to be related to JS001: anemia” value came to 2.6%, the “SAE judged by the investigator to be related to JS001: immune-mediated hepatitis” value amounted to 1.0%, the “SAE judged by the investigator to be related to JS001: immune-mediated pneumonia” value was 2.6% and the “SAE judged by the investigator to be related to JS001: interstitial lung disease” value is listed as 1.3%. Besides, in series [2], the “SAE judged by the investigator to be related to JS001: leukopenia” value was found to be 1.0%, the “SAE judged by the investigator to be related to JS001: liver function abnormality” value is listed as 1.3%, the “SAE judged by the investigator to be related to JS001: neutropenia” value is on record as 1.9% and the “SAE judged by the investigator to be related to JS001: pulmonary inflammation” value is on record as 1.0%. Besides, the “SAE judged by the investigator to be related to JS001: thrombocytopenia” value in series [2] is recorded as 2.3%.
